Values belong to the molecule of their own block, whether it stands above or below them.
Tests used:
[35S]HA-Synoviolin-HAHA = molecular target: T1, [35S]HA-Synoviolin-HAHA (Homo sapiens, UniProt Q86TM6); experiment: Binding of Synoviolin to SL on nylon membrane with [35S]-labeled probe; settings: protein transferred to nylon membrane, 2 hours at room temperature
T1 construct: Expression of Full-Length Synoviolin Recombinant Protein in E. coli; made in house; host or cells: cell-free in vitro translation (TNT-coupled Translation System, Promega) from pcDNA3-HA-synoviolin-HAHA
Experimental: The SL cDNA was inserted into a pGEX vector in the same manner as in Example 3 to prepare GST-SL fusion protein, and the GST-SL (500 ng) was applied to 10% SDS-PAGE along with GST (1 μg) as a control. After SDS-PAGE, it was transferred to a nylon membrane by electroblotting. This nylon membrane was denatured for 1 hour at room temperature with 50 mM Tris-HCl (pH 8.0) containing 6M guanidine hydrochloride and 5 mM 2-mercaptoethanol, and regenerated overnight at 4° C. in 50 mM Tris-HCl (pH 8.0) containing 5 mM 2-mercaptoethanol and 0.05% Tween 20. The regenerated nylon membrane was treated with blocking buffer [10 mM Tris-HCl (pH 8.0), 5% skim milk, 0.1% Triton X-100, 150 mM NaCl, 1 mM EDTA, 5 mM MgCl2, 1 mM DTT, 5% glycerol, protease inhibitor (complete, Boehringer Mannheim)] and washed in blocking buffer (same as above, except for 0.5% skim milk). […] This nylon membrane was washed in 10 mM Tris-HCl (pH 8.0), 0.5% skim milk, 0.1% Triton X-100, 150 mM NaCl, 1 mM EDTA, 5 mM MgCl2, 1 mM DTT, and protease inhibitor (complete, Boehringer Mannheim), and its radioactivity was detected with an image analyzer (BAS2000, Fujix). […]

[1] = test system: RA patient-derived synovial cells; experiment: MTT assay of synovial cell hyperplasia; type: cell-based, human; settings: 1 μM, three days of culture, 10%-FCS/DMEM, 37° C., 5% CO2
Experimental: The RA patient-derived synovial cells prepared in Example 1 were used to prepare 96 well plates so that there were 5×10^3 cells/well, and GST or GST-partial Synoviolin was added to the cell supernatant so that the final concentration became 0.01 to 1 μM. After three days of culture, 3-(4,5-dimethyl-2-thiazolyl)-2,5-diphenyl-2H-tetrazolium bromide (MTT)/PBS was added to the cell supernatant, and it was cultured for 3 hours under conditions of 37° C. and 5% CO2. After culturing, the cell supernatant was removed, crystals of MTT formazan were dissolved with dimethyl sulfoxide, and absorbance measurement was performed (Journal of Immunological Methods, 65, 55, 1983).

[2] = test system: anti-synovial cell anti-serum; experiment: Antibody absorption in fluorescent immunostaining of synovial cells; type: binding, rabbit
Experimental: Immunostaining was performed by fixing synovial cells upon glass slides by the ordinary method, and immunostaining was performed using the anti-synovial cell anti-serum of Example 1. A sample subjected to 30-minute blocking with 1% bovine serum albumin (BSA) was allowed to undergo immune reaction for 60 minutes at room temperature with anti-synovial cell anti-serum diluted 100 times with 1% BSA. In addition, along with observation with anti-serum, experiments were also performed using anti-synovial cell antibodies purified from this anti-serum. Purified anti-synovial cell antibodies were prepared by immunoaffinity purification using GST-partial Synoviolin fusion protein as a ligand. The ligand used was a fusion protein expressed after the GST-fusion protein expression vector pGEX-5X-3 containing the 1799 bp synoviolin gene up to No. 1233-3031 of SEQ ID NO: 1 was transformed into BL21. A Glutathione Sepharose column was produced by the method of the Pharmacia Corp, to prepare a GST-partial syno-GS column. As a control for the case where purified anti-synovial cell antibodies were used, an anti-GST antibody obtained by the immunoaffinity purification of anti-serum in the same manner where GST was used as the ligand was used. […]

[3] = test system: anti-synovial cell anti-serum; experiment: Antibody absorption experiment in Western blotting of cell lysates; type: binding, rabbit; settings: RA patient-derived synovial cells, 2.0 mg/mL
Experimental: First, the various cells used as specimens were solubilized in 1% NP-40 to prepare cell lysates. Each of the cell lysates was treated with 25 mM Tris-HCl (pH 6.8), 0.25% sodium dodecyl sulfate (SDS), 0.05% mercaptoethanol and 0.1% glycerol, and then separated with 8% SDS polyacrylamide electrophoresis (SDS-PAGE). After SDS-PAGE, protein derived from the various cells was transferred to a nitrocellulose (NC) membrane by electroblotting. On this NC membrane, anti-synovial cell anti-serum was diluted 1000 times with Tris buffered saline (TBS) containing 2.0 mg/mL GST-partial Synoviolin fusion protein and 5% skim milk, and subjected to immune reaction for 60 minutes at room temperature. In addition, as negative controls, an experiment wherein the same antibody solution is reacted with the NC membrane, and an experiment wherein the GST-partial Synoviolin fusion protein in the antibody solution is replaced with GST alone were performed at the same time. After the reaction, the NC membrane was washed with 0.1% Tween 20/TBS, subjected to an immune reaction for 60 minutes at room temperature with horseradish peroxidase (HRP) labeled anti-rabbit IgG antibodies as the secondary antibodies, and washed with 0.1% Tween 20/TBS, and the target antigen was detected by detecting HRP activity. […]

[4] = test system: anti-synovial cell anti-serum; experiment: Antibody absorption test in synovial tissue staining; type: binding, rabbit; settings: 2.0 mg/mL added to anti-serum
Experimental: The staining of RA patient-derived synovial tissue was performed by fixing synovial tissue upon glass slides by the ordinary method. A sample subjected to 30-minute blocking with 1% BSA was allowed to undergo immune reaction for 60 minutes at room temperature with anti-synovial cell anti-serum diluted 100 times with 1% BSA. After reaction, the sample was washed with PBS and then allowed to undergo immune reaction using HRP-labeled anti-rabbit IgG antibodies as the secondary antibody. Confirmation of the antigen in the immune reaction with anti-synovial cell anti-serum was performed by the coloring of 3,3′-diaminobenzidine tetrahydrochloride based on HRP activity. In the same manner as in the aforementioned Western blotting, GST-partial Synoviolin fusion protein was used to perform an anti-synovial cell anti-serum absorption test with respect to synovial tissue staining. Tissue staining was performed by adding 2.0 mg/mL of GST-partial Synoviolin fusion protein or GST (2.0 mg/mL) to anti-synovial cell anti-serum.

T1 sequence (Q86TM6 whole entry E545G): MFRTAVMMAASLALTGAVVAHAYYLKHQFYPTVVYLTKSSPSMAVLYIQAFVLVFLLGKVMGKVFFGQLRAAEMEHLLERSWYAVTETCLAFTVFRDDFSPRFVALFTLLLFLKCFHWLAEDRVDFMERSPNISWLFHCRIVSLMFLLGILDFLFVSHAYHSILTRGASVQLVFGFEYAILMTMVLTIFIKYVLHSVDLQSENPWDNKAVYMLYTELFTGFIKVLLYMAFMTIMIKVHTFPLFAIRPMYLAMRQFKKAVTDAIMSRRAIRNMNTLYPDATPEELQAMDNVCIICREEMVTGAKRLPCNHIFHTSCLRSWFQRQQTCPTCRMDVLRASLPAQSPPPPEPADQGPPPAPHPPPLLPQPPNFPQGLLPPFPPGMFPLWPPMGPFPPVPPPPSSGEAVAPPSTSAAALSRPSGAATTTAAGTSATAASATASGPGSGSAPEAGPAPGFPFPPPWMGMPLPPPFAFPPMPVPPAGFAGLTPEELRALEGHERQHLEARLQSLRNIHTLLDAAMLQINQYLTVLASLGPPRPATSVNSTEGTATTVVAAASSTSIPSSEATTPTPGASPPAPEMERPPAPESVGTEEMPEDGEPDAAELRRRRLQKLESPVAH

- binding to [35S]HA-Synoviolin-HAHA ([35S]HA-Synoviolin-HAHA): not observed
Molecule: glutathione S-transferase [GST, reference compound]

- binding to [35S]HA-Synoviolin-HAHA ([35S]HA-Synoviolin-HAHA): observed
B1: GST-SL: GST fusion protein of Synoviolin ligand (SL), thought to be the same protein as S1-5 (protein)
chain: QDTEETITYTQCTDGYEWDPVRQQCKDIDECDIVPDACKGGMKCVNHYGGYLCLPKTAQIIVNNEQPQQETQPAEGTSGATTGVVAASSMATSGVLPGGGFVASAAAVAGPEMQTGRNNFVIRRNPADPQRIPSNPSHRIQCAAGYEQSEHNVCQDIDECTAGTHNCRADQVCINLRGSFACQCPPGYQKRGEQCVDIDECTIPPYCHQRCVNTPGSFYCQCSPGFQLAANNYTCVDINECDASNQCAQQCYNILGSFICQCNQGYELSSDRLNCEDIDECRTSSYLCQYQCVNEPGKFSCMCPQGYQVVRSRTCQDINECETTNECREDEMCWNYHGGFRCYPRNPCQDPYILTPENRCVCPVSNAMCRELPQSIVYKYMSIRSDRSVPSDIFQIQATTIYANTINTFRIKSGNENGEFYLRQTSPVSAMLVLVKSLSGPREHIVDLEMLTVSSIGTFRTSSVLRLTIIVGPFSF
modifications: left off: a dimerising Fc or GST

B2: GST-partial Synoviolin: GST fusion protein of a portion of Synoviolin (cDNA 1799 bp; SEQ ID NO: 1, No. 1233-3031) expressed in E. coli (protein)
chain: PPVPPPPSSGEAVAPPSTSAAALSRPSGAATTTAAGTSATAASATASGPGSGSAPEAGPAPGFPFPPPWMGMPLPPPFAFPPMPVPPAGFAGLTPEELRALEGHERQHLEARLQSLRNIHTLLDAAMLQINQYLTVLASLGPPRPATSVNSTEGTATTVVAAASSTSIPSSEATTPTPGASPPAPEMERPPAPESVGTEEMPEDGEPDAAELRRRRLQKLESPVAH
modifications: left off: a dimerising Fc or GST
- RA patient-derived synovial cell hyperplasia [1]: significantly suppressed
- immune reaction of anti-synovial cell anti-serum with RA patient-derived synovial cells [2]: blocked
- immune reaction of anti-synovial cell anti-serum to the 220 kDa protein [3]: blocked
- immune reaction of anti-synovial cell anti-serum to the approximately 140 kDa and approximately 185 kDa proteins [3]: partially blocked
- staining of synovial tissue with anti-synovial cell anti-serum [4]: weakened
